Reference: PMC7914964, “Ca^2+-Dependent Protein Kinase 6 Enhances KAT2 Shaker Channel Activity in Arabidopsis thaliana” (International Journal of Molecular Sciences, 2021)

Molecular target: KAT2-CFP (Arabidopsis thaliana, UniProt Q38849 1-697)
Experiment: cell-based or functional assay

KAT2-CFP, sequence (Q38849 whole entry): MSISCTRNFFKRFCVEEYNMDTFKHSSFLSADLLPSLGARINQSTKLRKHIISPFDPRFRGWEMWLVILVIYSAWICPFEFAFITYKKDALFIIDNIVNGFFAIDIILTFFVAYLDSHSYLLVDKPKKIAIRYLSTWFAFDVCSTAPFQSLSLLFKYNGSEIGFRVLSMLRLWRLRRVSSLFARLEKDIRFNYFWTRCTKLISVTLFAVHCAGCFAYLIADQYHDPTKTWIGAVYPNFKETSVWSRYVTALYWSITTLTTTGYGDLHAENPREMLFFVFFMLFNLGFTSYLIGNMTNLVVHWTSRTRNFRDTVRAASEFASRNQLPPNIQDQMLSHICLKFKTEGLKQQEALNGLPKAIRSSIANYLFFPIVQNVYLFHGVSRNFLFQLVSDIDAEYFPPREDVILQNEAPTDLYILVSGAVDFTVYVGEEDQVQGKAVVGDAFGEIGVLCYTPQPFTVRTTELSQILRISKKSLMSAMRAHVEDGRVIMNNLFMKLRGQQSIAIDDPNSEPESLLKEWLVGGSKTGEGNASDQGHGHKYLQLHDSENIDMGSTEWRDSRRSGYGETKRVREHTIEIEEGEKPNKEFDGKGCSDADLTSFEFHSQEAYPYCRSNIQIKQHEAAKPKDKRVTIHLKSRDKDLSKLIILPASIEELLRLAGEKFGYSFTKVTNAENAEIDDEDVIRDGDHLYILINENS

B1: AtCPK6-YFP (enzyme, Arabidopsis thaliana, UniProt Q38872 1-544, looked up)
chain: MGNSCRGSFKDKIYEGNHSRPEENSKSTTTTVSSVHSPTTDQDFSKQNTNPALVIPVKEPIMRRNVDNQSYYVLGHKTPNIRDLYTLSRKLGQGQFGTTYLCTDIATGVDYACKSISKRKLISKEDVEDVRREIQIMHHLAGHKNIVTIKGAYEDPLYVHIVMELCAGGELFDRIIHRGHYSERKAAELTKIIVGVVEACHSLGVMHRDLKPENFLLVNKDDDFSLKAIDFGLSVFFKPGQIFKDVVGSPYYVAPEVLLKHYGPEADVWTAGVILYILLSGVPPFWAETQQGIFDAVLKGYIDFDTDPWPVISDSAKDLIRKMLCSSPSERLTAHEVLRHPWICENGVAPDRALDPAVLSRLKQFSAMNKLKKMALKVIAESLSEEEIAGLRAMFEAMDTDNSGAITFDELKAGLRRYGSTLKDTEIRDLMEAADVDNSGTIDYSEFIAATIHLNKLEREEHLVSAFQYFDKDGSGYITIDELQQSCIEHGMTDVFLEDIIKEVDQDNDGRIDYEEFVAMMQKGNAGVGRRTMKNSLNISMRDV
For B1, the “KAT2 currents at hyperpolarized potentials (TEVC) in Xenopus laevis oocytes co-expressing KAT2 and AtCPK6, against KAT2 alone” value was 2 fold.
